From the supplement of paper PMC9732359
± gives the uncertainty stated by the source.

Experiment: protein stability index of a GFP-peptide fusion (yeast GPS) (PSI 1-4); higher = more stable; sorted into four equal gates, so the index is relative within each strain
Details: doa10∆
Outline: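 The protein stability index of a peptide was calculated by multiplying its read frequency in each gate by that gate's number and adding the products. The peptides were tiled 17-residue stretches of yeast proteins, fused downstream of GFP on a Cherry-expressing plasmid and carried in yeast as a pooled library. Mid-log cultures in leucine-free medium were sorted into four equal gates by GFP/Cherry ratio, and each gate's plasmids were PCR-amplified and Illumina-sequenced.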

With KVAPAPFGAKSTKSNKT [RPL8A] as the sequence, how does the protein stability index read?
The protein stability index was 2.68 ± 0.1.

For KVDGKVRTDTTYPAGFM [RPS4A], which protein stability index is on record?
Its protein stability index is 3.41 ± 0.13.

Which protein stability index does the source give for KVEKGVNIEPFNIDDEI [LIN1] here?
The protein stability index was 3.52 ± 0.14.

For KVIKVLGRTGSRGGVTQ [RPS28A], which protein stability index is on record?
The protein stability index was 3.02 ± 0.073.

Which protein stability index does the source give for KVPDISSDGQLKKFRES [BRR2] here?
Its protein stability index is 3.36 ± 0.13.

With KVSKNSTSFKNPRRLEI [YMR153W/NUP53] as the sequence, how does the protein stability index read?
The protein stability index was 2.85 ± 0.059.

With KVSYAVKKPQKSKTSTG [SNM1] as the sequence, how does the protein stability index read?
The protein stability index was 2.85 ± 0.1.

With KYLYLRAVGGEVGASAA [RPL12A] as the sequence, how does the protein stability index read?
Its protein stability index is 1.66 ± 0.18.

For KYRKRQLVTREAQIKDW [FAS2], which protein stability index is on record?
The protein stability index was 2.81 ± 0.27.

With KYSDILLKKATKPEVAS [CDC53] as the sequence, how does the protein stability index read?
Its protein stability index is 2.32 ± 0.097.

For LADILKANISLETLEHN [RPO21], which protein stability index is on record?
Its protein stability index is 2.96 ± 0.093.

With LADKLENYEGKQDKTLQ [YIL149C/MLP2] as the sequence, how does the protein stability index read?
The protein stability index was 3.15 ± 0.18.

Which protein stability index does the source give for LAKSKASLTAARTAANS [RPN6] here?
The protein stability index was 2.5 ± 0.18.

With LAKTKENYDAKIELEKK [YIL149C/MLP2] as the sequence, how does the protein stability index read?
The protein stability index was 3.22 ± 0.058.

With LANFVAKGFYHTPMVNF [SRB8] as the sequence, how does the protein stability index read?
Its protein stability index is 2.57 ± 0.059.

Which protein stability index does the source give for LAPTQLSAEYLVILKPD [SIN4] here?
The protein stability index was 2.31 ± 0.11.

Which protein stability index does the source give for LAQLTSKLIPEVINKEI [RPS1A] here?
Its protein stability index is 2.82 ± 0.1.

With LARGLRESTKALTRGEA [RPS12] as the sequence, how does the protein stability index read?
Its protein stability index is 3.28 ± 0.14.

With LARQVKLLLLNTSAIQE [YIL149C/MLP2] as the sequence, how does the protein stability index read?
Its protein stability index is 2.19 ± 0.085.

For LASFEKTTDHLFDAAFY [RPO31], which protein stability index is on record?
The protein stability index was 2.9 ± 0.058.

With LATGPNLTSEIEDLRAD [YOR098C/NUP1] as the sequence, how does the protein stability index read?
The protein stability index was 3.42 ± 0.11.

With LATPVQFELLSRRWRQR [BRR2] as the sequence, how does the protein stability index read?
Its protein stability index is 1.79 ± 0.072.

For LATRRVLQEYRLTKQAF [RPO21], which protein stability index is on record?
The protein stability index was 2.99 ± 0.082.

Which protein stability index does the source give for LCKSATTKMWPTNCPLR [BRR2] here?
The protein stability index was 2.82 ± 0.13.

For LDDNSTSLEKQINSIKK [YJL041W/NSP1], which protein stability index is on record?
The protein stability index was 2.74 ± 0.078.

For LDEIFSGCDSTKPSLRK [ECM29], which protein stability index is on record?
Its protein stability index is 2.57 ± 0.078.

Which protein stability index does the source give for LDELQWKSPEWIQVFGL [MED6] here?
The protein stability index was 2.24 ± 0.078.

For LDEMELHPYNSRGLFEK [YDL116W/NUP84], which protein stability index is on record?
The protein stability index was 3.23 ± 0.094.

Which protein stability index does the source give for LDENKWYKFNDDKVSVV [UBP6] here?
Its protein stability index is 2.87 ± 0.12.

With LDEVDAALDLSHTQNIG [SMC2] as the sequence, how does the protein stability index read?
The protein stability index was 3.07 ± 0.17.

Which protein stability index does the source give for LDGKFSLFHTAVSVANG [RPN2] here?
Its protein stability index is 2.09 ± 0.056.

Which protein stability index does the source give for LDKFTDGGLFTLFVRDQ [QCR2] here?
Its protein stability index is 2.98 ± 0.093.

With LDKVINKELPINHTILG [RPN8] as the sequence, how does the protein stability index read?
The protein stability index was 2.19 ± 0.077.

For LDPINLPLDSQDDEYVK [PRP8], which protein stability index is on record?
Its protein stability index is 2.83 ± 0.075.

For LDPISLILIPGETMWVP [RPN13], which protein stability index is on record?
The protein stability index was 2.28 ± 0.095.

Which protein stability index does the source give for LDTYLPEDLNSLYIYYL [SIR2] here?
Its protein stability index is 2.8 ± 0.068.

Which protein stability index does the source give for LEANGRSLEKVNNSVSK [SSN2] here?
Its protein stability index is 3.48 ± 0.15.

With LEASLNSITKDNIDYAP [YJL039C/NUP192] as the sequence, how does the protein stability index read?
Its protein stability index is 2.7 ± 0.05.

With LEATWNFIEPGINQILG [CDC53] as the sequence, how does the protein stability index read?
Its protein stability index is 2.95 ± 0.29.

Which protein stability index does the source give for LEDIYTSAHEAIRADPA [RPL5] here?
The protein stability index was 3.04 ± 0.066.

Which protein stability index does the source give for LEEKKKRPNNKTLEKLE [IRR1] here?
Its protein stability index is 3.55 ± 0.14.

Which protein stability index does the source give for LEESDVEDTLHVNKRKR [YOR098C/NUP1] here?
The protein stability index was 3.26 ± 0.095.

Which protein stability index does the source give for LEEVSLKWIDTASKFGK [RPL3] here?
Its protein stability index is 1.75 ± 0.097.

For LEFARITPMNDDQCMLI [SIN4], which protein stability index is on record?
The protein stability index was 2.63 ± 0.074.

Which protein stability index does the source give for LEHVLLVPTASFFIASQ [FAS1] here?
The protein stability index was 1.25 ± 0.033.

For LEKFLQGRDTSKLPDPE [SRP72], which protein stability index is on record?
The protein stability index was 2.76 ± 0.11.

Which protein stability index does the source give for LENATWTMRIEGRLLDN [SNF12] here?
Its protein stability index is 2.64 ± 0.099.

With LENKADPLVSLMMVEKV [RPT6] as the sequence, how does the protein stability index read?
Its protein stability index is 2.12 ± 0.095.

For LEPGCSVLLHHKTMSIV [RPT2], which protein stability index is on record?
The protein stability index was 1.39 ± 0.067.

For LEQKIHEVEEILNELQP [SMC1], which protein stability index is on record?
Its protein stability index is 3.04 ± 0.15.

Which protein stability index does the source give for LERLTLVFCKHITSVPI [GRR1] here?
Its protein stability index is 1.47 ± 0.057.

Which protein stability index does the source give for LERYYKEQADIYAKQQE [ARP7] here?
Its protein stability index is 3.29 ± 0.29.
